US12404607

Key:
[1] = biological target: SARS-CoV-2 spike receptor binding domain (RBD) antigen (SARS-CoV-2) (UniProt P0DTC2); assay: ELISA, coated RBD
[2] = biological target: SARS-CoV-2 spike on GFP reporter pseudotype virus (Integral Molecular) (SARS-CoV-2) (UniProt P0DTC2); assay: cell-based or functional assay
[3] = biological target: SARS-CoV-2 spike S1 antigen (SARS-CoV-2) (UniProt P0DTC2); assay: ELISA, coated S1
[4] = biological target: SARS CoV-2 Spike RBD protein of the Spike:ACE2 blocking ELISA (BPS Bioscience) (SARS-CoV-2) (UniProt P0DTC2); assay: competition ELISA: RBD coated, test article, then ACE2-His (competitor)
SARS CoV RBD (SARS-CoV) = SARS CoV RBD (SARS-CoV) (UniProt P59594); assay: ELISA, antigen coated at 2 ug/mL

Row | Substance | EC50 [1] [µg/mL] | CoV-2 pseudotype neutralization IC50 [2] [µg/mL] | EC50 [3] [µg/mL] | IC50 [4] [µg/mL] | EC50 (SARS CoV RBD (SARS-CoV)) [µg/mL]
1 | SARS CoV mAb [CR3022] (Absolute Antibody) | 0.088 | 100 | 0.078 | – | –
2 | SARS CoV-2 mAb [SAD-S35] (Acro Biosystems) (antibody) | 0.057 | 0.26 | 0.058 | 1.1 | –
3 | rCIG (recombinant coronavirus-2 immune globulin; recombinant anti-coronavirus 19 hyperimmune gammaglobulin) | 0.1 | 0.43 | 0.092 | 2.2 | 0.6
